Consider 1 protein from PMC8853325.

As usually defined, the Km is the substrate concentration at which the rate is half of its maximum.

Substrate in series [1]: CC(=O)N[C@H]1[C@@H](OP(=O)(O)OP(=O)(O)OCCCCCCCCCCCOc2ccccc2)O[C@H](CO)[C@@H](O)[C@@H]1O[C@H]1O[C@H](C)[C@@H](O)[C@H](O)[C@@H]1O
Nature of the series: cells, lysate or membranes. Conditions: donor GDP-D-[^3H]Rha, 5 mM MnCl2, Tris pH 9, 37 °C.

Substrate in series [2]: C[C@H]1O[C@H](OCc2ccccc2)[C@@H](O)[C@@H](O)[C@@H]1O
Nature of the series: cells, lysate or membranes. The note with it: donor GDP-D-[^3H]Rha, 5 mM MnCl2, Tris pH 9, 37 °C.

B1: His6-WbpX (Pseudomonas aeruginosa) (protein)
chain: MTRLLVECTYVFEHPKVNSGIQRVVRNVIRELPEADETVECIPVAMLDGTLYQVHSLAPLDPRPHSPLVRLRILVERAANYFWLGQRTLEKRRPFRSSPWARRLLYVACRLFAFAFLSIPLRLLDRILGKQQPAPVRATPLEHRAGDQLVLLDSSWHADFFPLAERLKSEGVGIVSVIYDLIPLTHPQFCDAGLVKVFNHWFDWIAATADGYVAISETIRDEVRAEMLRRIGPEKVAQRWFDYFHLGSELDLVEDGASVEPDLLRMFKAKAPVFLMVSTIEPRKNHGYLLDAFERAWAQGSQARLCIAGRIGWKCEALVERVRQHPELNKRLFMFNDLSDKSLEYAYSHAASLVFPSYVEGFGLPLVEAMQRGLPAMGSDIPVFREIGGEFMAYFDLADPQTLANLVTRFEATGEFPAERPVGEWRWIGWHEASRQLIARILLALGKAPAHGEAVHADCG
Regarding B1, the Km was determined as 220 µM in series [1] and 21 µM in series [2].
